*1 amine or outer side, *2 acyl side, *3 side chain or, on linkers, in order; H or OH if unused. Where no end group is shown, it is not given here. Side-chain parts run from the residue outwards. [ ]: non-standard residue; d: D form. The star is where a group is joined. C16 diacid = O=C(O)CCCCCCCCCCCCCCC(=O)*; γGlu = O=C(O)[C@H](CCC(=O)[*:2])N[*:1]; NMeI = CC[C@H](C)[C@H](NC)C(=O)O; Api = NC1(C(=O)O)CCNCC1; Hexanoyl = CCCCCC(=O)*; Aib = CC(C)(N)C(=O)O
T1: CRF1R receptor (UniProt P34998 24-415, limits assumed)
T1 sequence (looked up): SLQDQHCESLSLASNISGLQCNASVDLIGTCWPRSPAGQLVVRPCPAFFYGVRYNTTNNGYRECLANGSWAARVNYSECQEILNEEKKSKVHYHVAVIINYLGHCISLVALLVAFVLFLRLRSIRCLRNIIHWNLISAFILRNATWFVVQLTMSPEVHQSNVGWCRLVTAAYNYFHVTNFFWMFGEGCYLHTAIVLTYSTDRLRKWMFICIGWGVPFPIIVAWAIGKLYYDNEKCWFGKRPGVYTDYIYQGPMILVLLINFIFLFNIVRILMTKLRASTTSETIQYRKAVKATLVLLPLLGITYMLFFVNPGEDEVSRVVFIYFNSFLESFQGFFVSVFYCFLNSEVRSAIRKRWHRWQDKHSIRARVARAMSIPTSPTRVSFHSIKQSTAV


Experiments:
[1] = target: human corticotropin-releasing factor 2a (CRF2a receptor) (human), Q13324; test: cell-based or functional assay
Sequence of human corticotropin-releasing factor 2a (CRF2a receptor) (human), Q13324 (Q13324 20-411): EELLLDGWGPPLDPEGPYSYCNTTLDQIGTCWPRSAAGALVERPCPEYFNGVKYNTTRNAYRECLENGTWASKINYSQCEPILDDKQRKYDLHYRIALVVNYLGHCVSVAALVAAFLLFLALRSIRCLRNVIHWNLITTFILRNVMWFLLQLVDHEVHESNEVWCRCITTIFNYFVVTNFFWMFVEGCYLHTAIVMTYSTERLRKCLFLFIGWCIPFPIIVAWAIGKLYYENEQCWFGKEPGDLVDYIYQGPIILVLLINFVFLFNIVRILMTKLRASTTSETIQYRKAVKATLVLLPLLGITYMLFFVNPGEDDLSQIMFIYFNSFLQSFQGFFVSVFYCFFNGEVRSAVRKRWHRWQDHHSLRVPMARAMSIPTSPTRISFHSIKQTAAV

[2] = target: T1, CRF1R receptor; test: cell-based or functional assay

Row | Binder | EC50 [nM] (cAMP) [1] | Emax (% I) [2] | EC50 [2]
1 | Ac-IVLSLD[dV]PIKLK([γGlu-C16 diacid])KILLEQEKQKAQREQAETN[Api]QILAQV-NH2 (SMILES CC[C@H](C)[C@H](NC(C)=O)C(=O)N[C@H](C(=O)N[C@@H](CC(C)C)C(=O)N[C@@H](CO)C(=O)N[C@@H](CC(C)C)C(=O)N[C@@H](CC(=O)O)C(=O)N[C@@H](C(=O)N1CCC[C@H]1C(=O)N[C@H](C(=O)N[C@@H](CCCCN)C(=O)N[C@@H](CC(C)C)C(=O)N[C@@H](CCCCNC(=O)CC[C@H](NC(=O)CCCCCCCCCCCCCCC(=O)O)C(=O)O)C(=O)N[C@@H](CCCCN)C(=O)N[C@H](C(=O)N[C@@H](CC(C)C)C(=O)N[C@@H](CC(C)C)C(=O)N[C@@H](CCC(=O)O)C(=O)N[C@@H](CCC(N)=O)C(=O)N[C@@H](CCC(=O)O)C(=O)N[C@@H](CCCCN)C(=O)N[C@@H](CCC(N)=O)C(=O)N[C@@H](CCCCN)C(=O)N[C@@H](C)C(=O)N[C@@H](CCC(N)=O)C(=O)N[C@@H](CCCNC(=N)N)C(=O)N[C@@H](CCC(=O)O)C(=O)N[C@@H](CCC(N)=O)C(=O)N[C@@H](C)C(=O)N[C@@H](CCC(=O)O)C(=O)N[C@H](C(=O)N[C@@H](CC(N)=O)C(=O)NC1(C(=O)N[C@@H](CCC(N)=O)C(=O)N[C@H](C(=O)N[C@@H](CC(C)C)C(=O)N[C@@H](C)C(=O)N[C@@H](CCC(N)=O)C(=O)N[C@H](C(N)=O)C(C)C)[C@@H](C)CC)CCNCC1)[C@@H](C)O)[C@@H](C)CC)[C@@H](C)CC)C(C)C)C(C)C) [SEQ ID NO 152] | 0.51 nM | 25% | –
2 | Ac-IVLSLD[dV]PIKLK([γGlu-C16 diacid])KILLEQEKQK[Aib]QREQAETN[Api]QILAQV-NH2 (SMILES CC[C@H](C)[C@H](NC(C)=O)C(=O)N[C@H](C(=O)N[C@@H](CC(C)C)C(=O)N[C@@H](CO)C(=O)N[C@@H](CC(C)C)C(=O)N[C@@H](CC(=O)O)C(=O)N[C@@H](C(=O)N1CCC[C@H]1C(=O)N[C@H](C(=O)N[C@@H](CCCCN)C(=O)N[C@@H](CC(C)C)C(=O)N[C@@H](CCCCNC(=O)CC[C@H](NC(=O)CCCCCCCCCCCCCCC(=O)O)C(=O)O)C(=O)N[C@@H](CCCCN)C(=O)N[C@H](C(=O)N[C@@H](CC(C)C)C(=O)N[C@@H](CC(C)C)C(=O)N[C@@H](CCC(=O)O)C(=O)N[C@@H](CCC(N)=O)C(=O)N[C@@H](CCC(=O)O)C(=O)N[C@@H](CCCCN)C(=O)N[C@@H](CCC(N)=O)C(=O)N[C@@H](CCCCN)C(=O)NC(C)(C)C(=O)N[C@@H](CCC(N)=O)C(=O)N[C@@H](CCCNC(=N)N)C(=O)N[C@@H](CCC(=O)O)C(=O)N[C@@H](CCC(N)=O)C(=O)N[C@@H](C)C(=O)N[C@@H](CCC(=O)O)C(=O)N[C@H](C(=O)N[C@@H](CC(N)=O)C(=O)NC1(C(=O)N[C@@H](CCC(N)=O)C(=O)N[C@H](C(=O)N[C@@H](CC(C)C)C(=O)N[C@@H](C)C(=O)N[C@@H](CCC(N)=O)C(=O)N[C@H](C(N)=O)C(C)C)[C@@H](C)CC)CCNCC1)[C@@H](C)O)[C@@H](C)CC)[C@@H](C)CC)C(C)C)C(C)C) [SEQ ID NO 153] | 0.41 nM | 22% | –
3 | [NMeI]VLSLD[dV]PIKLK([γGlu-C16 diacid])KILLEQEKQKAQREQAETN[Api]QILAQV-NH2 (N-terminus assumed; SMILES CC[C@H](C)[C@H](NC)C(=O)N[C@H](C(=O)N[C@@H](CC(C)C)C(=O)N[C@@H](CO)C(=O)N[C@@H](CC(C)C)C(=O)N[C@@H](CC(=O)O)C(=O)N[C@@H](C(=O)N1CCC[C@H]1C(=O)N[C@H](C(=O)N[C@@H](CCCCN)C(=O)N[C@@H](CC(C)C)C(=O)N[C@@H](CCCCNC(=O)CC[C@H](NC(=O)CCCCCCCCCCCCCCC(=O)O)C(=O)O)C(=O)N[C@@H](CCCCN)C(=O)N[C@H](C(=O)N[C@@H](CC(C)C)C(=O)N[C@@H](CC(C)C)C(=O)N[C@@H](CCC(=O)O)C(=O)N[C@@H](CCC(N)=O)C(=O)N[C@@H](CCC(=O)O)C(=O)N[C@@H](CCCCN)C(=O)N[C@@H](CCC(N)=O)C(=O)N[C@@H](CCCCN)C(=O)N[C@@H](C)C(=O)N[C@@H](CCC(N)=O)C(=O)N[C@@H](CCCNC(=N)N)C(=O)N[C@@H](CCC(=O)O)C(=O)N[C@@H](CCC(N)=O)C(=O)N[C@@H](C)C(=O)N[C@@H](CCC(=O)O)C(=O)N[C@H](C(=O)N[C@@H](CC(N)=O)C(=O)NC1(C(=O)N[C@@H](CCC(N)=O)C(=O)N[C@H](C(=O)N[C@@H](CC(C)C)C(=O)N[C@@H](C)C(=O)N[C@@H](CCC(N)=O)C(=O)N[C@H](C(N)=O)C(C)C)[C@@H](C)CC)CCNCC1)[C@@H](C)O)[C@@H](C)CC)[C@@H](C)CC)C(C)C)C(C)C) [SEQ ID NO 154] | 0.52 nM | 24% | –
4 | VLSLD[dV]PIKLK([γGlu-C16 diacid])QILLKQERQKKQREQAEKNKQILEQV-NH2 [SEQ ID NO 4] | 0.44 nM | 4% | > 250000 pM
5 | [NMeI]VLSLD[dV]PIKLK([γGlu-C16 diacid])KILLEQEKQK[Aib]QREQAETN[Api]QILAQV-NH2 (N-terminus assumed; SMILES CC[C@H](C)[C@H](NC)C(=O)N[C@H](C(=O)N[C@@H](CC(C)C)C(=O)N[C@@H](CO)C(=O)N[C@@H](CC(C)C)C(=O)N[C@@H](CC(=O)O)C(=O)N[C@@H](C(=O)N1CCC[C@H]1C(=O)N[C@H](C(=O)N[C@@H](CCCCN)C(=O)N[C@@H](CC(C)C)C(=O)N[C@@H](CCCCNC(=O)CC[C@H](NC(=O)CCCCCCCCCCCCCCC(=O)O)C(=O)O)C(=O)N[C@@H](CCCCN)C(=O)N[C@H](C(=O)N[C@@H](CC(C)C)C(=O)N[C@@H](CC(C)C)C(=O)N[C@@H](CCC(=O)O)C(=O)N[C@@H](CCC(N)=O)C(=O)N[C@@H](CCC(=O)O)C(=O)N[C@@H](CCCCN)C(=O)N[C@@H](CCC(N)=O)C(=O)N[C@@H](CCCCN)C(=O)NC(C)(C)C(=O)N[C@@H](CCC(N)=O)C(=O)N[C@@H](CCCNC(=N)N)C(=O)N[C@@H](CCC(=O)O)C(=O)N[C@@H](CCC(N)=O)C(=O)N[C@@H](C)C(=O)N[C@@H](CCC(=O)O)C(=O)N[C@H](C(=O)N[C@@H](CC(N)=O)C(=O)NC1(C(=O)N[C@@H](CCC(N)=O)C(=O)N[C@H](C(=O)N[C@@H](CC(C)C)C(=O)N[C@@H](C)C(=O)N[C@@H](CCC(N)=O)C(=O)N[C@H](C(N)=O)C(C)C)[C@@H](C)CC)CCNCC1)[C@@H](C)O)[C@@H](C)CC)[C@@H](C)CC)C(C)C)C(C)C) [SEQ ID NO 155] | 0.51 nM | 26% | –

The next lines start with the values.

Row | EC50 [nM] (cAMP) [1] | Emax (% I) [2] | EC50 [2] | Binder
6 | 0.32 nM | 30% | – | Hexanoyl-VLSLD[dV]PIKLK([γGlu-C16 diacid])KILLEQEKQKKQREQAETN[Api]QILAQV-NH2 (SMILES CCCCCC(=O)N[C@H](C(=O)N[C@@H](CC(C)C)C(=O)N[C@@H](CO)C(=O)N[C@@H](CC(C)C)C(=O)N[C@@H](CC(=O)O)C(=O)N[C@@H](C(=O)N1CCC[C@H]1C(=O)N[C@H](C(=O)N[C@@H](CCCCN)C(=O)N[C@@H](CC(C)C)C(=O)N[C@@H](CCCCNC(=O)CC[C@H](NC(=O)CCCCCCCCCCCCCCC(=O)O)C(=O)O)C(=O)N[C@@H](CCCCN)C(=O)N[C@H](C(=O)N[C@@H](CC(C)C)C(=O)N[C@@H](CC(C)C)C(=O)N[C@@H](CCC(=O)O)C(=O)N[C@@H](CCC(N)=O)C(=O)N[C@@H](CCC(=O)O)C(=O)N[C@@H](CCCCN)C(=O)N[C@@H](CCC(N)=O)C(=O)N[C@@H](CCCCN)C(=O)N[C@@H](CCCCN)C(=O)N[C@@H](CCC(N)=O)C(=O)N[C@@H](CCCNC(=N)N)C(=O)N[C@@H](CCC(=O)O)C(=O)N[C@@H](CCC(N)=O)C(=O)N[C@@H](C)C(=O)N[C@@H](CCC(=O)O)C(=O)N[C@H](C(=O)N[C@@H](CC(N)=O)C(=O)NC1(C(=O)N[C@@H](CCC(N)=O)C(=O)N[C@H](C(=O)N[C@@H](CC(C)C)C(=O)N[C@@H](C)C(=O)N[C@@H](CCC(N)=O)C(=O)N[C@H](C(N)=O)C(C)C)[C@@H](C)CC)CCNCC1)[C@@H](C)O)[C@@H](C)CC)[C@@H](C)CC)C(C)C)C(C)C) [SEQ ID NO 157]
7 | 0.29 nM | 8% | – | Hexanoyl-VLSLD[dV]PIKLK([γGlu-C16 diacid])KILLEQEKQKKQREQAETN[Aib]QILAQV-NH2 (SMILES CCCCCC(=O)N[C@H](C(=O)N[C@@H](CC(C)C)C(=O)N[C@@H](CO)C(=O)N[C@@H](CC(C)C)C(=O)N[C@@H](CC(=O)O)C(=O)N[C@@H](C(=O)N1CCC[C@H]1C(=O)N[C@H](C(=O)N[C@@H](CCCCN)C(=O)N[C@@H](CC(C)C)C(=O)N[C@@H](CCCCNC(=O)CC[C@H](NC(=O)CCCCCCCCCCCCCCC(=O)O)C(=O)O)C(=O)N[C@@H](CCCCN)C(=O)N[C@H](C(=O)N[C@@H](CC(C)C)C(=O)N[C@@H](CC(C)C)C(=O)N[C@@H](CCC(=O)O)C(=O)N[C@@H](CCC(N)=O)C(=O)N[C@@H](CCC(=O)O)C(=O)N[C@@H](CCCCN)C(=O)N[C@@H](CCC(N)=O)C(=O)N[C@@H](CCCCN)C(=O)N[C@@H](CCCCN)C(=O)N[C@@H](CCC(N)=O)C(=O)N[C@@H](CCCNC(=N)N)C(=O)N[C@@H](CCC(=O)O)C(=O)N[C@@H](CCC(N)=O)C(=O)N[C@@H](C)C(=O)N[C@@H](CCC(=O)O)C(=O)N[C@H](C(=O)N[C@@H](CC(N)=O)C(=O)NC(C)(C)C(=O)N[C@@H](CCC(N)=O)C(=O)N[C@H](C(=O)N[C@@H](CC(C)C)C(=O)N[C@@H](C)C(=O)N[C@@H](CCC(N)=O)C(=O)N[C@H](C(N)=O)C(C)C)[C@@H](C)CC)[C@@H](C)O)[C@@H](C)CC)[C@@H](C)CC)C(C)C)C(C)C) [SEQ ID NO 156]

Reference: patent publication US20260001928A1 (CORTERIA PHARMACEUTICALS, priority 2022, published 2026)
